Laboratory results: patent US20240327526A1
Numbering of substitutions follows the chain as printed.

What was measured:
[1] = molecular target: ActRIIB-huFc (human); test: BIAcore
[2] = molecular target: ActRIIB-huFc (human); test: KinExA
[3] = molecular target: ActRIIB-huFc (human); test: binding affinity, method not stated

Chain of ActRIIB-huFc (human) (chain, as listed by the source limits assumed, form in doubt): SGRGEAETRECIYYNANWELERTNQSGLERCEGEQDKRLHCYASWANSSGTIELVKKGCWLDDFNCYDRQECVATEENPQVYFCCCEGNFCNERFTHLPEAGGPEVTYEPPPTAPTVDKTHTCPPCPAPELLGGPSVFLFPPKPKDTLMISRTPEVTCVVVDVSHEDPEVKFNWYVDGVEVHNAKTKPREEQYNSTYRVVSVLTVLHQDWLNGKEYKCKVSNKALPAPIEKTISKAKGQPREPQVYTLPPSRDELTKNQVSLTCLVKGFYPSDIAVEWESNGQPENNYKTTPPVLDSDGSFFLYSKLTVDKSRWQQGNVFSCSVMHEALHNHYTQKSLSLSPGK

B1: M43 (antibody, human IgG2, lambda, V domains shown)
VH: EVQLLESGGGLVQPGGSLRLSCAASGFTFRNSAMSWVRQAPGKGLEWVSGISVTGGSTFYTDSVKGRFTVSRDNSRNTLYLQMNSLRAEDTAVYYCAKVYYYSFFDYWGQGTLVTVSS
VL: QTVVTQEPSFSVSPGGTVTLTCGFNSGSVSTSYWPSWYQQTPGQAPRTLIYNTNTRSSGVPDRFSGSILGNKAALTITGAQADDESDYYCVLWMGSGIWVFGGGTKLTVLG
Kd [1]: 1 pM
Kd [2]: < 1 pM
fold improvement of affinity over the parental molecule R31-1 [2]: 10 fold

B2: Anti-ActRIIB human IgG R31-1 (antibody, V domains shown)
VH: B1 VH with S32Y, F59Y, Y102S
VL: B1 VL with W34Y, W93Y
Kd [1]: 10 pM
Kd [3]: < 10 pM
